{
  "source": "paper PMC3220584",
  "about": "(The Journal of Biological Chemistry, 2011)",
  "proteins": {"B1": {"name": "human collagen VI α3(VI) N-terminal N9-N1 region (domain or fragment, UniProt P12111 237-2028, looked up)", "chain": "AQDSADIIFLIDGSNNTGSVNFAVILDFLVNLLEKLPIGTQQIRVGVVQFSDEPRTMFSLDTYSTKAQVLGAVKALGFAGGELANIGLALDFVVENHFTRAGGSRVEEGVPQVLVLISAGPSSDEIRYGVVALKQASVFSFGLGAQAASRAELQHIATDDNLVFTVPEFRSFGDLQEKLLPYIVGVAQRHIVLKPPTIVTQVIEVNKRDIVFLVDGSSALGLANFNAIRDFIAKVIQRLEIGQDLIQVAVAQYADTVRPEFYFNTHPTKREVITAVRKMKPLDGSALYTGSALDFVRNNLFTSSAGYRAAEGIPKLLVLITGGKSLDEISQPAQELKRSSIMAFAIGNKGADQAELEEIAFDSSLVFIPAEFRAAPLQGMLPGLLAPLRTLSGTPEVHSNKRDIIFLLDGSANVGKTNFPYVRDFVMNLVNSLDIGNDNIRVGLVQFSDTPVTEFSLNTYQTKSDILGHLRQLQLQGGSGLNTGSALSYVYANHFTEAGGSRIREHVPQLLLLLTAGQSEDSYLQAANALTRAGILTFCVGASQANKAELEQIAFNPSLVYLMDDFSSLPALPQQLIQPLTTYVSGGVEEVPLAQPESKRDILFLFDGSANLVGQFPVVRDFLYKIIDELNVKPEGTRIAVAQYSDDVKVESRFDEHQSKPEILNLVKRMKIKTGKALNLGYALDYAQRYIFVKSAGSRIEDGVLQFLVLLVAGRSSDRVDGPASNLKQSGVVPFIFQAKNADPAELEQIVLSPAFILAAESLPKIGDLHPQIVNLLKSVHNGAPAPVSGEKDVVFLLDGSEGVRSGFPLLKEFVQRVVESLDVGQDRVRVAVVQYSDRTRPEFYLNSYMNKQDVVNAVRQLTLLGGPTPNTGAALEFVLRNILVSSAGSRITEGVPQLLIVLTADRSGDDVRNPSVVVKRGGAVPIGIGIGNADITEMQTISFIPDFAVAIPTFRQLGTVQQVISERVTQLTREELSRLQPVLQPLPSPGVGGKRDVVFLIDGSQSAGPEFQYVRTLIERLVDYLDVGFDTTRVAVIQFSDDPKVEFLLNAHSSKDEVQNAVQRLRPKGGRQINVGNALEYVSRNIFKRPLGSRIEEGVPQFLVLISSGKSDDEVDDPAVELKQFGVAPFTIARNADQEELVKISLSPEYVFSVSTFRELPSLEQKLLTPITTLTSEQIQKLLASTRYPPPAVESDAADIVFLIDSSEGVRPDGFAHIRDFVSRIVRRLNIGPSKVRVGVVQFSNDVFPEFYLKTYRSQAPVLDAIRRLRLRGGSPLNTGKALEFVARNLFVKSAGSRIEDGVPQHLVLVLGGKSQDDVSRFAQVIRSSGIVSLGVGDRNIDRTELQTITNDPRLVFTVREFRELPNIEERIMNSFGPSAATPAPPGVDTPPPSRPEKKKADIVFLLDGSINFRRDSFQEVLRFVSEIVDTVYEDGDSIQVGLVQYNSDPTDEFFLKDFSTKRQIIDAINKVVYKGGRHANTKVGLEHLRVNHFVPEAGSRLDQRVPQIAFVITGGKSVEDAQDVSLALTQRGVKVFAVGVRNIDSEEVGKIASNSATAFRVGNVQELSELSEQVLETLHDAMHETLCPGVTDAAKACNLDVILGFDGSRDQNVFVAQKGFESKVDAILNRISQMHRVSCSGGRSPTVRVSVVANTPSGPVEAFDFDEYQPEMLEKFRNMRSQHPYVLTEDTLKVYLNKFRQSSPDSVKVVIHFTDGADGDLADLHRASENLRQEGVRALILVGLERVVNLERLMHLEFGRGFMYDRPLRLNLLDLDYELAEQLDNIAEKA"}},
  "target": "the molecule itself",
  "assay": "SEC-MALS",
  "data": [
    {"protein": "B1", "values": [
      {"measurement": "stoichiometry N", "result": 2}
    ]}
  ]
}
